Holding throughout (experiment): pulldown
Common to all, as to conditions: 20 nM protein, 1.5 uM RNA pool; 20 mM HEPES pH 7.8, 70 mM KCl, 10 mM NaCl, 10% glycerol, 2 mM DTT, 0.1 ug/uL BSA; 30 min, 4 C

Data set [1] deals with T1, rbm-28 (Caenorhabditis elegans) (UniProt O62325).
T1 sequence: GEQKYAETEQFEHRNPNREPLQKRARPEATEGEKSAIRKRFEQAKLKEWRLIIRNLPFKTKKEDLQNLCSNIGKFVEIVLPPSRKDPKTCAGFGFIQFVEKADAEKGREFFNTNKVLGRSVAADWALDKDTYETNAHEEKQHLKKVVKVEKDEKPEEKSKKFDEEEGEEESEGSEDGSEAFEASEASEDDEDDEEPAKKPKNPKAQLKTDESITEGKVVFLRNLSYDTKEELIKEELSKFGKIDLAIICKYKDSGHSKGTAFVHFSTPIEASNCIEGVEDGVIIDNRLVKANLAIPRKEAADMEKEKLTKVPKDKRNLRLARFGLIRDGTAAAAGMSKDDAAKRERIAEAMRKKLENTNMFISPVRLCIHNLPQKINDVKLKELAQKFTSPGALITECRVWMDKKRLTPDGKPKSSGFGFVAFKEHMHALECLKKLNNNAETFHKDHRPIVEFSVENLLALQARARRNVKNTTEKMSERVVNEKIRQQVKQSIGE

Data set [2] addresses T2, PK16782.1 E6F;T7E (Cannabis sativa) (UniProt A0A7J6H871).
T2 sequence: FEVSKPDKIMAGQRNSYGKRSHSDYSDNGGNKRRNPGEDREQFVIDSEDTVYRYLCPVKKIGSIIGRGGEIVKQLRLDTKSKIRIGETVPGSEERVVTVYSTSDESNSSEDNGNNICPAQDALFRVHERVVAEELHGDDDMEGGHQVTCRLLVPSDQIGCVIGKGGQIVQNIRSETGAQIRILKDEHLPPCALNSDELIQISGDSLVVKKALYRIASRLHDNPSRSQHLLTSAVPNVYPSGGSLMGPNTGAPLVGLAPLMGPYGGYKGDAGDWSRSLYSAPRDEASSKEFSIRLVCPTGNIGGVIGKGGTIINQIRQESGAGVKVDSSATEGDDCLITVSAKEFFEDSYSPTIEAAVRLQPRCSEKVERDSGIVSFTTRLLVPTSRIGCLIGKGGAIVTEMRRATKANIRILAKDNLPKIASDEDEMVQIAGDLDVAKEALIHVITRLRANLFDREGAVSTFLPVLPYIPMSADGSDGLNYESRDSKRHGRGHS

Data set [3] addresses T3, B0280.17 (Caenorhabditis elegans) (UniProt Q2V4X2).
T3 sequence: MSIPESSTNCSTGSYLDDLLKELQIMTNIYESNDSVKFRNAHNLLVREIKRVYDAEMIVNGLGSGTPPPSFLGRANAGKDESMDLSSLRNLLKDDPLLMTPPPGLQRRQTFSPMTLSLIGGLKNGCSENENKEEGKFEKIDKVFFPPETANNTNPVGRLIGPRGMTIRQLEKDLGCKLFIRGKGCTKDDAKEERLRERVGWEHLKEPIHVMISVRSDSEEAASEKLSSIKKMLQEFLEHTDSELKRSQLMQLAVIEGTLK

The subject of data set [4] is T4, PK27602.1 (Cannabis sativa).
T4 sequence: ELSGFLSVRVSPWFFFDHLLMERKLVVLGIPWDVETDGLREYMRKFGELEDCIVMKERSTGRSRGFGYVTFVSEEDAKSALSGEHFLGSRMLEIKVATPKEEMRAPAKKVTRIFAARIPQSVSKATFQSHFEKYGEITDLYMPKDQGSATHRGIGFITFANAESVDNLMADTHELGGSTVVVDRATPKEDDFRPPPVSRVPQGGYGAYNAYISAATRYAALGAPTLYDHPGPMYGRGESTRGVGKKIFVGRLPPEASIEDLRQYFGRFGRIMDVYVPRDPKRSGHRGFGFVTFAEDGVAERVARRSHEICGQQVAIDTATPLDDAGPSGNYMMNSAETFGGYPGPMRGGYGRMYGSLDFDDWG

The target of data set [5] is T5, CBG03563 (Caenorhabditis briggsae) (UniProt A8WVC5).
T5 sequence: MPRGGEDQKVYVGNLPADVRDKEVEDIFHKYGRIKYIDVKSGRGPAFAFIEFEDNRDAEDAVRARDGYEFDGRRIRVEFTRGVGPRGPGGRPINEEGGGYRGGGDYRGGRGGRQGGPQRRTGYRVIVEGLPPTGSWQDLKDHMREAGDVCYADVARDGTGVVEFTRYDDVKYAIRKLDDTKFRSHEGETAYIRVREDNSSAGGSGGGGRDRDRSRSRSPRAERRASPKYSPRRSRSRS

Data set [6] has as its target T6, cwf2 (Schizosaccharomyces pombe) (UniProt P87126).
T6 sequence: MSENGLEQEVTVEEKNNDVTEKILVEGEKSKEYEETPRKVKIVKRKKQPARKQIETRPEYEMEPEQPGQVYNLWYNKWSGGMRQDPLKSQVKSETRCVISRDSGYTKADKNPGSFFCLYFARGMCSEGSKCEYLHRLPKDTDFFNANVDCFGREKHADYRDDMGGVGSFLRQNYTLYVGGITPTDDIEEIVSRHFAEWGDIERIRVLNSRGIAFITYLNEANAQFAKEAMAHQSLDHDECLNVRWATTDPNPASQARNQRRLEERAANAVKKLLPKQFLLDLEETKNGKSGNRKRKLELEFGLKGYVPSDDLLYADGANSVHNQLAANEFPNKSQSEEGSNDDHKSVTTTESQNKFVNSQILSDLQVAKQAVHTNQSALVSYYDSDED

The target in data set [7] is T7, C44B7.2 (Caenorhabditis elegans) (UniProt Q95QR5).
T7 sequence: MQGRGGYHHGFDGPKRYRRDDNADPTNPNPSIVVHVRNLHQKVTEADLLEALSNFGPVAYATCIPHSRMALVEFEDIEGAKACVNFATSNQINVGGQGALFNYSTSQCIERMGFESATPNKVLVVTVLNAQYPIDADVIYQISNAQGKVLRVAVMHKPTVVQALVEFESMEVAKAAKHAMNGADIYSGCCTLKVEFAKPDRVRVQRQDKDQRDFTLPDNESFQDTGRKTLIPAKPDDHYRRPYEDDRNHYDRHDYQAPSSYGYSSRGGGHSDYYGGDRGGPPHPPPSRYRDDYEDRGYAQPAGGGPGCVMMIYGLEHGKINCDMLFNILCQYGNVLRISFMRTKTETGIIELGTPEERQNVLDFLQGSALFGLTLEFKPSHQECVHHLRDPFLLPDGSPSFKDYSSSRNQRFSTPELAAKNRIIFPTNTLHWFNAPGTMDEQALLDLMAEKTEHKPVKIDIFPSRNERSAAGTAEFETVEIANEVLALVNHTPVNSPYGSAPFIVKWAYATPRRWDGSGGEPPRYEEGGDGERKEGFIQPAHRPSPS

In data set [8] the target is T8, PK20770.1 (Cannabis sativa) (UniProt A0A7J6HVT3).
T8 sequence: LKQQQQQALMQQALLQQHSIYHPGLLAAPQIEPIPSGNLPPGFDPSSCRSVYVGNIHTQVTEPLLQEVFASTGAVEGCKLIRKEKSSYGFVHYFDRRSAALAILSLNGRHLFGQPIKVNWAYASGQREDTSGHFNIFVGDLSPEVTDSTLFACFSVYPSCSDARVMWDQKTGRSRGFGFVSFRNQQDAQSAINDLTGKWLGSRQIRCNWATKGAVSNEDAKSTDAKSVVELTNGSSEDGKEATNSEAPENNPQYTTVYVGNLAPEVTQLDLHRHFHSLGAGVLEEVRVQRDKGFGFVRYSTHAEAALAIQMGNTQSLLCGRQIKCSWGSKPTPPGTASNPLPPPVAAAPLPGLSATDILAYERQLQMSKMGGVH

Data set [9] has as its target T9, PK00513.1 (Cannabis sativa) (UniProt A0A7J6DZZ3).
T9 sequence: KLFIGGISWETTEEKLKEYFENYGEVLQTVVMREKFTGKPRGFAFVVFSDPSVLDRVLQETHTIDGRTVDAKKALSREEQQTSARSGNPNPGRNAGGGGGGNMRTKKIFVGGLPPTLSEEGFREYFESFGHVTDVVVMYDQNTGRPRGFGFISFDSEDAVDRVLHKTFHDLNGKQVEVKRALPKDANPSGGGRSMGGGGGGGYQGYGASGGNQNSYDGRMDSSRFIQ

Data set [10] concerns the target T10, PK00840.1 S382G (Cannabis sativa) (UniProt A0A803NL23).
T10 sequence: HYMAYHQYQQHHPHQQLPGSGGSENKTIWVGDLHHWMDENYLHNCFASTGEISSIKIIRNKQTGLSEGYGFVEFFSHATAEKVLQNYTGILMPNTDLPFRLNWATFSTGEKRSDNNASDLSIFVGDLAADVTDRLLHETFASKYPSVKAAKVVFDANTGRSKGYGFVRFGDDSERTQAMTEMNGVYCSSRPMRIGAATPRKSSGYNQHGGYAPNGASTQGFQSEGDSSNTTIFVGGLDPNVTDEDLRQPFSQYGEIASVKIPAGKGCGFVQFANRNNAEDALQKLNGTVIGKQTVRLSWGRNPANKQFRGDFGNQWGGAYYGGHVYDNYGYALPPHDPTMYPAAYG

Data set [11] relates to T11, PK23097.1 (Cannabis sativa).
T11 sequence: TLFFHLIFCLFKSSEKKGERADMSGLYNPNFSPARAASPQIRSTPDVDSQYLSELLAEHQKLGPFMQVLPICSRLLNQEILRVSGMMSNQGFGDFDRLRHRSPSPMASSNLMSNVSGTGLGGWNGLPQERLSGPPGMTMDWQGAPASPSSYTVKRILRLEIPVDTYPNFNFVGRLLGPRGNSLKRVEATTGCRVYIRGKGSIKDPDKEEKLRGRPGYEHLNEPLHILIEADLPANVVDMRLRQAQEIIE

Data set [12] concerns the target T12, PK05405.1 I85V;D92G;E327K;K328E (Cannabis sativa) (UniProt A0A7J6HVI1).
T12 sequence: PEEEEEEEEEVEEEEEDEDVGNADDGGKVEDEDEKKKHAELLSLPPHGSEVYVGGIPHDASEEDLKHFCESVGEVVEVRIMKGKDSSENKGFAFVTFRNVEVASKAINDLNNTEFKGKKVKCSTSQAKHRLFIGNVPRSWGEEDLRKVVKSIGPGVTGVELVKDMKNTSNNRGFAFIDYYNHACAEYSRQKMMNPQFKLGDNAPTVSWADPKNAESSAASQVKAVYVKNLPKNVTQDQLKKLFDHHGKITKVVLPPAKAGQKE

For data set [13], the target named is T13, K07H8.9 (Caenorhabditis elegans) (UniProt O45180).
T13 sequence: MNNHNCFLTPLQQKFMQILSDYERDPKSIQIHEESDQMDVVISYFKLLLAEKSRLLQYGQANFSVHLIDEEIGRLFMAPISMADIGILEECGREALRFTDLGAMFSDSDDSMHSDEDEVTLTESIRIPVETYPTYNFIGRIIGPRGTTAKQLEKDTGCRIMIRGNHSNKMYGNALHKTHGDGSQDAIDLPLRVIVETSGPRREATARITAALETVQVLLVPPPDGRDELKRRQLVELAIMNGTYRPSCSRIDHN

For data set [14], the target named is T14, CPEB1 E201G;P348T;C438Y (Homo sapiens) (UniProt Q9BZB8).
T14 sequence: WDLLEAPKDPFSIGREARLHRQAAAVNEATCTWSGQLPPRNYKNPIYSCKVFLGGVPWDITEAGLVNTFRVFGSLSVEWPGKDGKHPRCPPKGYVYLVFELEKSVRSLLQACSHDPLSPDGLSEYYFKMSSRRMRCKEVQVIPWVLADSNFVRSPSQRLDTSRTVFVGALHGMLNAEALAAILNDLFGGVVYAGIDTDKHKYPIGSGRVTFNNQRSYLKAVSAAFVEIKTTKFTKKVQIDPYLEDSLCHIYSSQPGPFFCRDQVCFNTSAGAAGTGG

AGACUCU [RNAcompete motif RNCMPT00470] displayed a binding signal (z-score (mean of top ten 7-mers)) in data set [1] of 9.34.
AACCAAA [RNAcompete motif RNCMPT00460] yielded a binding signal (z-score (mean of top ten 7-mers)) in data set [2] of 8.43.
As for ACUAACA [RNAcompete motif RNCMPT00467], the binding signal (z-score (mean of top ten 7-mers)) in data set [3] was determined as 10.4.
GAGUGA [RNAcompete motif RNCMPT00431] returned a binding signal (z-score (mean of top ten 7-mers)) in data set [4] of 12.8.
Regarding GGACGANG [RNAcompete motif RNCMPT00433], the binding signal (z-score (mean of top ten 7-mers)) in [5] was 7.68.
As for AANUUG [RNAcompete motif RNCMPT00432], the binding signal (z-score (mean of top ten 7-mers)) in data set [6] came out at 17.4.
With AACANA [RNAcompete motif RNCMPT00468], the binding signal (z-score (mean of top ten 7-mers)) in data set [7] was 8.36.
On to UUUUUU [RNAcompete motif RNCMPT00464], for which the binding signal (z-score (mean of top ten 7-mers)) in data set [8] is 14.6.
Take GUAGGAA [RNAcompete motif RNCMPT00462]: the binding signal (z-score (mean of top ten 7-mers)) in data set [9] came out at 10.4.
Substance UUUUUU [RNAcompete motif RNCMPT00461] returned a binding signal (z-score (mean of top ten 7-mers)) in data set [10] of 7.67.
In [11], ACUAAC [RNAcompete motif RNCMPT00465] registered a binding signal (z-score (mean of top ten 7-mers)) of 12.4.
As to UUUUUCG [RNAcompete motif RNCMPT00466], in [12], the binding signal (z-score (mean of top ten 7-mers)) amounted to 7.47.
Substance UACUNAC [RNAcompete motif RNCMPT00469] registered a binding signal (z-score (mean of top ten 7-mers)) in [13] of 7.13.
In the case of UUUUUUA [RNAcompete motif RNCMPT00434], in data set [14], the binding signal (z-score (mean of top ten 7-mers)) amounted to 13.2.
